Experimental data from the nanobody polyreactivity screen of Harvey et al. (2022).

Assay: yeast display, Sf9 membrane polyspecificity reagent, FACS + sequencing; frameworks hold sequencing errors
Method in brief: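 In a synthetic yeast display library (Saccharomyces cerevisiae BJ5465), nanobody expression was induced with galactose for 36–48 hours. FACS gates were set low and high (top ~1%) using anti-HA fluorescence for expression and streptavidin fluorescence for binding of the Sf9 membrane reagent. Each polyreactivity label is drawn from the gate of origin.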

| Sequence | polyreactivity (PSR sort gate) |
| --- | --- |
| QVKLVESGGGLVQAGGSLRLSCAAYGSTFTRNAMGWYRQAPGKERQLVAAITSGGSTNYADSVKGRFTISRDNAKNTVYLEMNSLKPEDTAVYYCAAGLGRYFYSWRYLYSIFDYWGQGTQVTVSS | low polyreactivity |
| QVKLVESGGGLVQAGGSLRLSFAASGYTFGSNAMGWYRQAPGKERELVADIDCSSGNTYYADSVKGRFTISRDNAKNTVYLQMNSLKPEDTAVYYCAAELHIYYSWYWYDYWGQGTQVTVSS | high polyreactivity |
| QVKLVESGGGLVQAGGSLRLTCAASGITFFIYAMGWYRQAPGKERELFYAIRSGGSTNYADSVKGRFTISRDNAKNTVYLQMNSLKPEDTAVYYCAADVYGTVRRVGWYYVGEGYDYWGQGTQLTVSS | low polyreactivity |
| QVKLVESGGGLVQAGGTLRLSCAASGSISWVYAMGWYRQAPGKERELVADITDSGDSTYYADSVKGRFTISRDNAKNTVYLQMNSLKPEDTAVFYCAAVSGPFVQTSGNGEYDYCGQGTQVTVSS | low polyreactivity |
| QVKLVESGGGLVQAVGILSLSCAASGSILGLYAMGWYRQAPGKERELVASITSSGSTYYADSVKGRFTISRDNAKNTVYLQMIILKPEDTAVYYCAAVVSYYYYIRYDYWGQGTQVTVSS | low polyreactivity |
| QVKLVESGRGFVQAGGSLRISCAASGITFRYNAMGWYRQAPGKERELVAAITFSGGSTYYSDSVKGRFTISRDNAKNTVYLQMNILKPEDTAVYYCAKLGSTSTRGNYDYWGQGTQVTVSS | low polyreactivity |
| QVKLVESGRGLVQAGGSLRLSCAASGSIFAQNVMGWYRQAPGKERELVAAISYSGGTTYYADSVKGRFTISRDNAQNTVYLQMNSLKPEDTAVYYCAAEFGVYEYDYWGQGTQVTVSS | low polyreactivity |
| QVKRVESGGGLVQAGGSLRLSCAASGIIFTYYAMGWYRQAPGKERELVAAISWTGGRTYFADSVKGRFTISRDNAKNTVYLQMNSLKREDTAVYYCAAKQYTRFGYYYWGQGTQVTVSS | high polyreactivity |
| QVLLQESGGGLVQAGGSLRLSCAASGNIFSAGGMGWSRQAPVNERELVAGIGTGTSTNYADSVKGRFTISRDNSKNTVYLQMNSLTPEDTAVYYCAAAYYSGLSHWYWGQGTQVTVSS | low polyreactivity |
| QVLLQESGGGLVQAGGSLRLSCAASGNIFSAGGMGWYRQAPVKELELVAGIGTGTSTNYADSVKGRFTISRDNAKNTVYLQMNSLKPEDTAVYYCAADSYPAYLGFVGFDYWGQGTQVNVSS | low polyreactivity |
| QVLLQETGGGLVQAGGSLRLSCAASGTISTDIRMGWYRLAPGKESEFVASIDCCSTTYYADSVKGRFTISRDNAKYTVYLQMNSLKPEDTAMYYCAAREATEFYLYYWGQGTQVTVSS | low polyreactivity |
| QVLLVESAGGLVQAGGSLRLSCAASGRTFYRYAMGWYRQAPGKERELVAVISWTSGSTYYADSVKGRFTISRDNAKNTVYLQMNSLKPEDTAVYYCAARRGGSYRYEYWGQGTQVTVSS | high polyreactivity |
| QVLLVESGGGLVQAGGSIRLSCAASGFIFWSNSLGWYRPAPGQEMELVAAISWSGGSTYYADSVKGRFTISRDNAKNNVYLEMNSVKPEDTAVYYCAARQTYGYRYTKYGYWGQGTQVTVSS | high polyreactivity |
| QVLLVESGGGLVQAGGSLRLSCAASGLTFERYAMGWYRQAPGKERELVAAISIRGGSTYYADSVKGRFTISRDKAMNTVYFQMKSLKPEDTAVDYCSADGSGREYDYWGQGTQVTVSS | low polyreactivity |
| QVLLVESGGGLVQAGGSLRLSCAASGRIFNAYAMGWYRQAPGKERELVAAISRSGGRTYYADSVKGRFTISRDNAKITVYLQMNSLKPEDTAVYYCAADAWSEQYPKYYYWGQGTQVTVSS | low polyreactivity |
| QVLLVESGGGLVQAGGSLRLSCAASGRTLRGYAMGWYRQAPGKERELVAAITWSGGSTYYADSVKGRFTISRDHAKNTVYLQMNSLKPEDTAVYYCNARSYPDLYDYWGQGTQVTVSS | low polyreactivity |
| QVLLVESGGGLVQAGGSLRLSCAASGYTFHVNAMGWYRQAPGKERELVAAINTSGDSTYYADSLKGRFTISRDNAKNTVYLQMNSLKPEDTAVYYCNAKGSVTRIGMEYDYWGQGTQVTVSW | low polyreactivity |
| QVLLVESGGGLVQAGGSLRLSCSASGSTSRFYAMGWSRQEPGKERELVAAINKSGTRTYYADSVKGRFTISRDNAKNTVYLQMNSLKPEDTAVYYCAADQGTYGYGGFYYWGLGTQVTVSS | high polyreactivity |
| QVLLVESGGGLVQAGGSLRLSSAASGSTYRNAMGWYRQAPGKERELVAAISSSGGRTYYADSVKGRFTISRDNAKNTVYLQMNSLKPDDTAVYYCAAPRFAAPSRIGYDWGQGTQVTVSS | high polyreactivity |
| QVLLVESGGGLVQAGGSLRLTCTPYGSIFGYYVMGRYRQPPGKEREFVAAISYGGGSTYYADSVKGRFTISRDNAKNTVYLQMNSLKPEETAVYYCNTDIYSDYVGEEYEYWGQGSQVTVSS | high polyreactivity |
| QVLLVESGRGIVQAGGSLRLSCAASGGTFQPYAMGWYRQDTGKERELVAANSLNTGSTYYADSVKGRFTISRDNAKNTVYLQMNSLKPEDTAVDYCAVKWFYGGYDYWGQGTQVTVSS | low polyreactivity |
| QVLMQESGGGLVQAGGSLRLSCAASGNIFSAGGMGWYRQAPVNERELVAGIGTATSTNYADSVKGRFTFSRDNAKNTVYLQMNSLKREDTAVYYCAAAYYSGLSHWYWGQGTQVTVSS | low polyreactivity |

| Sequence | polyreactivity (PSR sort gate) |
| --- | --- |
| QVLQVESGGGVVQAGGSLRLSCSASGSTIGNKTMGWYRQAPGKEREFVAAITESGGGTYADSVKGRFTISRDNAKNTVYLQMNSLKPEDNAVYYSAAVWYIWPFAFYYWGEGTQVTVSS | high polyreactivity |
| QVNLVDSGGGLVQAGGSHRLSCAASGSIVSGNAMGWYRQEPGKERELVATISWSGGSTNYADSVKGRFTISRDNAKNTVYLQMNSLKPEDTAVYYCNAYVAYWGWVYRVDYWGQGTQVTVSS | low polyreactivity |
| QVNLVESGGGLVQAGGSLRLSCAASGIIFRSYAMGWYRPAPGKARELVADITSTGTSTYYADSVKGRFTISRDNAKNTVYLQMNSLKPEDNAVYYCNADRFGFYPQRDYWGQGTQVTVSW | high polyreactivity |
| QVPLVEKGGGLVQAGGSLRLSCAASGFTIGYYAMGWYRQAPGKERELVAASTWRGDTTYYADSVKGRFTISRDNAKNTVYLQMNSLKPEDTAVYYCAAEYEVYFDWSYYYWGQGTQVTVSS | high polyreactivity |
| QVPLVESGGGIVQAGGSLRLSCAASGRTFRYNAMGWDRQAPGKEREKVAAITYGGGSTYYADSVKGRFTISRDNEKNTVYLQMNILKPEDTAVYYCATRGVSPSRPGYYCGQGTQVTVSS | high polyreactivity |
| QVPLVESGGGLVQAGCSLRLSCAASGSIFTRDAMGWYRPAPGKERELVAAISAGGGTTYYADSVKGRFTNSRDNAKNTVYLLMNSLKPEDSSVFYCAKRSRSGYYADDSWGHGTQVTVSS | high polyreactivity |
| QVPLVESGGGLVQAGGSLRLSCAASGRTFGIYAMGWYRQEPGKERELVATISWRGGSTNYADSVKGRFTISRDNAKNTVYLQMNSLKPEDTAVYYCAADPCGFGYPYLTRGTDGYDYWGQGTQVTVSS | low polyreactivity |
| QVPLVESGGGLVQAGGSLRLSCAASGSICGGYAMGWYRQAPGKERELVAGITYSGDSTYYADSVKGRFTISRDNAKNTVYLQMNSLKPEDTAGYYCNADQRVDHDDFDYWGQGTQVTVSS | low polyreactivity |
| QVPLVESGGGLVQAGGSLRLSCAASGSIFAPYTMGWYRQAPGKERELVAAISVTTGITYYADTLKGRFTISRDNAKNTVYLQMNSLKPEDTGVYYCAAELYKSLWYEYWGQGTQVTVSS | low polyreactivity |
| QVPLVESGGGLVQAGGSLRLSCAAYGFTFWTYAMGWYRQAPGKDRELVAAISRSAGRTYYADSVKGRFTISRDNAKNTVYLQMNSLKPEVSAVYYCNARAGYERYGYWGQGSQVTVSS | high polyreactivity |
| QVQFEESGGGLVQAGGSLRLSCAASGSTFQGYAMGWSRQAPGKERELVAAISSGGSTNYADSVKGRFTISRDNAKNTVYLQMNSLKPEDTAVYYCNVDLTTVGHWYYYRPGYDYWGQGTQVTVSS | low polyreactivity |
| QVQHEESGGGLVQAGGRLRLSCAASGRIFKQYALGGYRQAPGKERELVAAISVRGGITYYADSVKGRFTISRDNAMNTVYLQMNSLKPEDTAVYYCAKRSFRTHTYDYWGHGTQVTVSS | low polyreactivity |
| QVQHEESGGGLVQAGGSLRLSCAASGSIIRYYPMGWYRQATGKQRELVAAISRDDSRTYYADSVRGRFTISLDNAKNTVYLQMNSLKPEDTAVYYCAADSSRYTRYLYYYWGQGTQVTVSS | high polyreactivity |
| QVQHEESGGGLVQAGGSLRLSSAASGSTFVDYDMGCYRQAPGKVRELVAGITTGGSTNYADSVKGRFTISRDNALNTVYLQLKRLKPEDTAVYYCNSDSYTNLVPDYLYYWYEYWGQGTQVTVSS | low polyreactivity |
| QVQHEESGVGLVQAGGRLRVSCAASGSTFAANTMGWYRTAPGKERELVAAITVRGGSTYYADSVKGRFSISRDNAKNTVYLQMISLKPEDTAVYYCAAERPPYGYLVVGFVSTQYYYWGQGTQVTVSS | low polyreactivity |
| QVQHGESGGGIVQAVVSLRLSCSASGFTFYYYPMGWYRQAPGKERELVAAIDTGGSTNYADSVKGRFTMSRDNAKNTVYLQMNSLKPEDTAVYYCNALQPGLGSPLGEYDYWGQGTQVTVSS | low polyreactivity |
| QVQHVDSGGGIVQAGGSLRLSCAPSGRTILRYTMGWYRHAPGKERELVASITRGGSSYYADSVKGRFTISRDNAKNTVYLQMNSLKPEDTAVYYCAARRYYGVYYAFYYWGQGTQVTVSS | high polyreactivity |
| QVQHVDSGGGLVQAGGSLRLSCAASGSTFQLYAMGRDRQAPGKERELVASISWSGGSTYYADSVKGRFTISRDNAKNTVYLQMNSLKPEDTAVYSCNDDFWWRYRPGAVFPSYGYWGQGTQVTVSS | low polyreactivity |
| QVQHVDSGGGLVQAGGSLSLSCAASGSIFWPNTMGWYRQARGKERELVATISSGADTSYADSVKGRFTISRDNAKNTVYLQMNSLKPADTAVYYCAIRITVDDDHPRAQTFNYCGQGTQVTVSS | low polyreactivity |
| QVQHVDSGVCLVQAGGSLRLSCDASGSIFGSYAMGWYRQPPGKERELVAAISKSVGNTYYADSVKGRFTISRDNAKNTVYLQMNSLKPEVTAVYYCAAYGFYRWRGYDYWGQGTQVTVSS | high polyreactivity |
| QVQHVESAGGLVQAGGSLRLSCAASGSIFWYAMGWYRQAPGKERELVDGISRGGSTYYADSVKGRFTISRDNAKNTVYLQMNSLKPEDTAVYYFNTAGYYGTPYNYWGQGTQVTVSS | low polyreactivity |
